In patent US20130079278A1 (Novo Nordisk, published 2013):
*1 amine or outer side, *2 acyl side, *3 side chain or, on linkers, in order; H or OH if unused. Where no end group is shown, it is not given here. Side-chain parts run from the residue outwards. The star is where a group is joined. C18 diacid = O=C(O)CCCCCCCCCCCCCCCCC(=O)*; γGlu = O=C(O)[C@H](CCC(=O)[*:2])N[*:1]; AEEA = NCCOCCOCC(=O)O

B1: N^ε24-[(4S)-4-carboxy-4-[[(4S)-4-carboxy-4-[[2-[2-[2-[[2-[2-[2-[[(4S)-4-carboxy-4-(17-carboxyheptadecanoylamino)butanoyl]amino]ethoxy]ethoxy]acetyl]amino]ethoxy … (peptide)
peptide: HSQGTFTSDYSKYLESRRAQDFVK([γGlu-γGlu-AEEA-AEEA-γGlu-C18 diacid])WLLST-NH2
modifications: N-terminus assumed
SMILES: CC(C)C[C@H](NC(=O)[C@H](Cc1ccc(O)cc1)NC(=O)[C@H](CCCCN)NC(=O)[C@H](CO)NC(=O)[C@H](Cc1ccc(O)cc1)NC(=O)[C@H](CC(=O)O)NC(=O)[C@H](CO)NC(=O)[C@@H](NC(=O)[C@H](Cc1ccccc1)NC(=O)[C@@H](NC(=O)CNC(=O)[C@H](CCC(N)=O)NC(=O)[C@H](CO)NC(=O)[C@@H](N)Cc1c[nH]cn1)[C@@H](C)O)[C@@H](C)O)C(=O)N[C@@H](CCC(=O)O)C(=O)N[C@@H](CO)C(=O)N[C@@H](CCCNC(=N)N)C(=O)N[C@@H](CCCNC(=N)N)C(=O)N[C@@H](C)C(=O)N[C@@H](CCC(N)=O)C(=O)N[C@@H](CC(=O)O)C(=O)N[C@@H](Cc1ccccc1)C(=O)N[C@H](C(=O)N[C@@H](CCCCNC(=O)CC[C@H](NC(=O)CC[C@H](NC(=O)COCCOCCNC(=O)COCCOCCNC(=O)CC[C@H](NC(=O)CCCCCCCCCCCCCCCCC(=O)O)C(=O)O)C(=O)O)C(=O)O)C(=O)N[C@@H](Cc1c[nH]c2ccccc12)C(=O)N[C@@H](CC(C)C)C(=O)N[C@@H](CC(C)C)C(=O)N[C@@H](CO)C(=O)N[C@H](C(N)=O)[C@@H](C)O)C(C)C

Target: glucagon receptor (human, UniProt P47871 26-477)
Assay: cell-based or functional assay

Sequence of glucagon receptor (P47871 26-477): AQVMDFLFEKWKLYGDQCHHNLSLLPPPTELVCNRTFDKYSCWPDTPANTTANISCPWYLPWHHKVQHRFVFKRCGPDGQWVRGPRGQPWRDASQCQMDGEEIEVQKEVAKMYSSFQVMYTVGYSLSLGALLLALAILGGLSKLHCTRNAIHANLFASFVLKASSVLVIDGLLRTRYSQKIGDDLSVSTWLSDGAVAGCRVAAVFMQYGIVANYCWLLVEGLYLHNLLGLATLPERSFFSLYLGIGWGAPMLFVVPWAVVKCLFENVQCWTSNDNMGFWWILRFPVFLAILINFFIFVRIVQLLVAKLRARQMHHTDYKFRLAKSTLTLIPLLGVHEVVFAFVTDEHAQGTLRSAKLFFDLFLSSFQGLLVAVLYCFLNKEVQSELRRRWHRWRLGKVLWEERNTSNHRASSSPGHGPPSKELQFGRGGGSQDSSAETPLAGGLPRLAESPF

Row | Binder | Assay (I) Glucagon [EC50] [nM]
1 | HSQGTFTSDYSRYLDLRRAQEFVK([γGlu-γGlu-AEEA-AEEA-γGlu-C18 diacid])WLLST | 0.095
2 | HSQGTFTSDYSRYLDLRRAQDFVK([γGlu-γGlu-AEEA-AEEA-γGlu-C18 diacid])WLEST | 0.136
3 | HSQGTFTSDYSRYLDLRRAQDFVK([γGlu-γGlu-AEEA-AEEA-γGlu-C18 diacid])WLLQT | 0.204
4 | HSQGTFTSDYSKYLESRRAQEFVK([γGlu-γGlu-γGlu-γGlu-C18 diacid])WLLST | 0.169
5 | HSHGTFTSDYSKYLDSRRAQDFVK([γGlu-γGlu-AEEA-AEEA-γGlu-C18 diacid])WLLNT | 0.105
6 | HSQGTFTSDVSKYLESRRAQEFVK([γGlu-γGlu-γGlu-γGlu-C18 diacid])WLLST | 0.118
7 | HSQGTFTSDYSRYLESRRAQEFVK([γGlu-γGlu-γGlu-γGlu-C18 diacid])WLLST | 0.148
8 | HSQGTFTSDYSRYLESRRAQEFVK([γGlu-γGlu-AEEA-AEEA-γGlu-C18 diacid])WLLST | 0.289
9 | HSQGTFTSDYSRYLDIRRAQEFVK([γGlu-γGlu-AEEA-AEEA-γGlu-C18 diacid])WLEST | 0.099
10 | HSQGTFTSDVSRYLESRRAQEFVK([γGlu-γGlu-AEEA-AEEA-γGlu-C18 diacid])WLEST | 1.63
11 | HSQGTFTSDYSRYLESRRAQEFVK([γGlu-γGlu-AEEA-AEEA-γGlu-C18 diacid])WLEST | 1.09
12 | HSQGTFTSDYSKYLDARRAQDFVK([γGlu-γGlu-AEEA-AEEA-γGlu-C18 diacid])WLLQT | 0.192
13 | HSQGTFTSDYSKYLDARRAQDFVK([γGlu-γGlu-AEEA-AEEA-γGlu-C18 diacid])WLEST | 0.07
14 | B1 | 0.134
15 | HSQGTFTSDYSKYLESRRAQDFVK([γGlu-γGlu-AEEA-AEEA-γGlu-C18 diacid])WLEST | 0.682
16 | HSHGTFTSDYSKYLDSKRAQEFVK([γGlu-γGlu-AEEA-γGlu-C18 diacid])WLLST | 0.077
